Results taken from the DeepSol protein solubility set.

Assay: soluble on expression in E. coli; label from the status in PepcDB or PDB records

| Sequence | soluble on expression in E. coli |
| --- | --- |
| MGSDKIHHHHHHMIQGKKFISPGTWFSMIYPSDWSEFEDGEGSFLFYNPEHWTGNFRISAYKEDAAAPGGMNYGKDSVRQELKENPSASLVKVGHLECAYSKEMFEEEGIYYTSHLWVTGIDNVAFECSFTVPKGEHVDEAEKIISSLEIRKDGQKYPAEIIPIRLSEIYQVNEAYEWVTDTVKTQLKKDFQGLEEDLQKIQDVIDSGVLSPKKKEPWLAFGIAICTILANEVEGMEWMTLVDGNREVPVLRYEGSEQLIDPMKLLWSRVRAGETCEVAEAYKQALIH | not soluble |
| MEAVGADESYDGQQLYMMLVGHSRMADADRTAILGGTFTPIHNGHRALLHKAFQTASHDGSGDGHVIVGLTSPELATETRSDPTHVKQLGAYDDRRSALASELDQLGEPYTATYEIVRLDDTQGPAATRADVDALVASPEAKAQRRAYELNQQRRESGLHPLEIHTPPFVVAEDGTRISSTRIRNGEIDVHGRLLDASE | not soluble |
| MGSDKIHHHHHHMSRIVNVKLSLKRYEYEKPFHITGSVSSESRNVEVEIVLESGVKGYGEASPSFRVNGERVEALLAIENAVREMITGIDVRNYARIFEITDRLFGFPSLKAAVQFATLDALSQELGTQVCYLLGGKRDEIETDKTVGIDTVENRVKEAKKIFEEGFRVIKIKVGENLKEDIEAVEEIAKVTRGAKYIVDANMGYTQKEAVEFARAVYQKGIDIAVYEQPVRREDIEGLKFVRFHSPFPVAADESARTKFDVMRLVKEEAVDYVNIKLMKSGISDALAIVEIAESSGLKLMIGCMGESSLGINQSVHFALGTGAFEFHDLDSHLMLKEEVFRGKFIQDGPRMRVKDQ | not soluble |
| PTEFLYTSKIAAISWAATGGRQQRVYFQDLNGKIREAQRGGDNPWTGGSSQNVIGEAKLFSPLAAVTWKSAQGIQIRVYCVNKDNILSEFVYDGSKWITGQLGSVGVKVGSNSKLAALQWGGSESAPPNIRVYYQKSNGSGSSIHEYVWSGKWTAGASFGSTVPGTGIGATAIGPGRLRIYYQATDNKIREHCWDSNSWYVGGFSASASAGVSIAAISWGSTPNIRVYWQKGREELYEAAYGGSWNTPGQIKDASRPTPSLPDTFIAANSSGNIDISVFFQASGVSLQQWQWISGKGWSIGAVVPTGTPAGW | soluble |
| MGSDKIHHHHHHMFLVCGEALFDIFTRADDGGSLNRLGFDAIAGGSPFNVAIGLRRLGVEAAFFAGLSTDYLGRRLRAVLEQETVNAEHLIEFDAPTTLAMVAVGSDGSPTYSFRGDGCADRQLRLEHLPELDERVRGIHVGSFSLVVQPIADTLLALVARESARRLISLDPNVRLNPAPDIQRWRTQIAAFAEHAHLIKVSDEDLHLLYPDSDPQQIAEGWLGKRTQLVIVTRGTQGASVFTRQHGTWSVPAKTVVTADTVGAGDTFQAALLTFLSERQLDTPQGLSTLSRETLDEMLNFAVGAAALTCTKVGPDLPYRHQLG | not soluble |
| MSLTRSTRNSIEFKVWGRHALFTDPLTKVGGEKCSYHVPTYEALKGIAKSIYWKPTLIWVIDEVRVMKRVRTQTKGTKPLEFGGGNSLAIYTFLADVEYQVRAHFEWNEHRPELQADRIDGKHYAIARRMLERGGRQDIFLGTRDCQGYIEPCEFGGGAGAHDEGSELAFGLMFHGFDYPDETGDQKLHARFWRPVMRNGFIRFDRPEDCPVRKFVRSMSVKPFGFGQNLQSADEAAAELEGLAEGHHHHHH | soluble |
| MMDRVCRLSLAALLAGSGAAYADGSTLTVAYYGGNWGEAFDACVAQPFTEKTGIRVVAEIGNSTTTLAKLQQQSGDAVIDVAYMDGGISELAQEAGVLAPIDLAAIPNAASYLPQAVYKAGDEVFAVSAGYYSLGLIYNTSEVTETPDTWLSLWDESYAGAVALPSPSNSSGVPFVLFLARSVLGDTSESLDPTFAKLKELDTGLLFDSSGAASNAFQSSEVIIGAHFNVGAWDLTDGGLPIGFSVPKEGVWATDARMHVVKGTKNPEGAAQYLDMAASPEAAACLAERLYLGPPVTGVTLAPDVERKLPWGEGGSVEKLHLSDWTEVNARRAAIVERWNREIAN | not soluble |
| ALSGGFIKGFAHLGVIQALLEHDIKPDIISGVSAGALAGVFYADGNEPYRVLDYFSGHKFQDLTKLVIPKVGLFALGEFIDFLKSNLKAQKLEDLKLPLIITATDLDHGRSMHFHKGNIAERVAASCCMPVLFTPVKIGNTHYVDGGLLMNLPVSTIRNECEKVVAVNVSPLMAEKYKMNIVSIAMRSYHFMFRANTFPERDNCDLLIEPYNLEGYSNTELEKAEEIFEQGYNTASE | not soluble |
| SDTNSNQGIAFVHGTRDHREDAYGGYWKIDFIQSISQTLAKPENHYVVHCDFSQYMWHEDAANCVANQLLEFINDKNVSSLTVYTHSDGANIMRWILSNPTYDGRYMTLKRKISQVIAIAPSSGGTPLADEVLNGGIFETSLAWLLGYLSDAVKQQRVGDMLIYNEELLLGSKGRPSLSIPFKVIVGTDVYASPFSTSSYCNGYMLNSGLKIAKLYLNQCADGFLDCESQAQAGEVWFYDIDKTDYNLPLSHNQSRHSCFGLDQI | not soluble |
| MCLIAFDWQPDAAAGPVFTLIANRDEFFRRTSAPLSWWEDVPGVLAGRDLEAGGTWLGVSRDGRFAALTNYRAPFDIRAGAPTRGKLVSDFLGGPPVAPLDYLGALAEHSAVYNGFNLLVGDWKRRELAWFCNRAAEGETAVAPPVAVSAGVHALSNARLDTPWPKIVRKRAELGTLLTDNPTPSLDELIELMRDPRVADDDALPHTGIPIERERALSAAFIETPEYGTRGTTALRVTMKEGVRLTVDIKERCDDDGSHRTVRPGTFERAFTFDIDATQPRLEHHHHHH | soluble |
| MGSDKIHHHHHHMQNHVISLASAAERRAHITDTFGVRGIPFQFFDALMPSERLEQAMAELVPGLSAHPYLSGVEKACFMSHAVLWKQALDEGLPYIAVFEDDVLLGEGAEKFLAEDAWLQERFDPDSAFIVRLETMFMHVLTSPSGVADYCGRAFPLLESEHWGTAGYIISRKAMWFFLDRFAALPSEGLHPVDWMMFGNPDDRERMPVCQLNPALCAQELHYAKFHDQNSALGSLIEHDRCLNSKQQRRDSPANTFKHRLIRALTKISREREKRRQRREQLIGKIIVPFQ | not soluble |
| KADNSSVEKLVVQVQQLDPVKGNKDVGTVEITESAYGLVFTPHLHGLAQGLHGFHIHQNPSCEPKEKDGKLVAGLGAGGHWDPKETKQHGYPWSDNAHLGDLPALFVEHDGSATNPVLAPRLKKLDEVKGHSLMIHEGGDNHSDHPAPLGGGGPRMACGVIK | soluble |
| GDTHEFHKLLIKVVDLFLEDRIKEFEMKLNTTLDELEFEELIGKPDSSNSAENNGIFIDEYSYDASENAMKKLFVEYVRQPEFKYTVLSIKGVNDWVRE | soluble |
| MAHHHHHHMARLKVLNVAEKPSVASSIAEILSKGRPNKIKSCSKYNPVFTFDYKIKNDIWYMYVTSVTGHLTDQKFDDRYKNWHNTDPQELFDAEITVYVEKDKKNIENNLKKYSKECNMLILWLDCDREGEHICFEVINACRITNRKLIIHRAQFSAVTEKDIIHAINNLKEPNKNLAYSVDVRREIDLRMGSIFTRFMTIRYIELVKHETSIISYGPCQFPTLGFVVNRYLDIKNFKNEYYWSIKMKYVYNNDEINPMDDENNYDDHDDEQMDSDSDESDSYYTNNDDSNNYSDETDDYYGD | not soluble |
| MDTLQFQKNPETAAKMSAYMKHQFVFAGIPAPERQALSKQLLKESHTWPKEKLCQEIEAYYQKTEREYQYVAIDLALQNVQRFSLEEVVAFKAYVPQKAWWDSVDAWRKFFGSWVALHLTELPTIFALFYGAENFWNRRVALNLQLMLKEKTNQDLLKKAIIYDRTTEEFFIQKAIGWSLRQYSKTNPQWVEELMKELVLSPLAQREGSKYLAKASE | soluble |
| MRGSHHHHHHGSVIFDKRIKDEEDVEKELGLPVLGSIQKFNMTNTRRSTSSLIVHEQPKSPISEKFRGIRSNIMFANPDSAVQSIVITSEAPGAGMSTIAANLAVAYAQAGYKTLIVDGDMRKPTQHYIFNLPNNEGLSSLLLNWSTYQDSIISTEIEDLDVLTSGPIPPNPSELITSRAFANLYDTLLMNYNFVIIDTPPVNTVTDAQLFSKFTGNVVYVVNSENNNKDEVKKGKELIEATGAKLLGVVLNRMPKDKSASYYAYYGTDES | soluble |
| MSLKLDSKGPVLFKQKRVGINKTHFHILKFRTMRIDTPKDTPTHLLKNPDQYITKMGKFLRKTSLDELPQIWNIFVGHMSIIGPRPALWNQYDLIVERDKYGANDVPPGLTGWAQINGRDELPIEVKAKLDGEYVQNIGFWMDVKCFVGTIWSVLRSDGVVEGGTGSAKKEIASTKRREGHHHHHH | soluble |
| MGSDKIHHHHHHMASAPQANLPMFYNDLMPLNSRDHAAWKAKNADAAPWLIGQHAIPLTAEEFPQAARHYPIIFASGDNPVPLALMGLNEGVNVFVDEDGKVTQPVYIPAYVRRYPFLLAKLNPNSEELSLCFDPSSGLIGDSVDGVELFSDGQPSEATKAALGFCEQFEQAGQRTQAFIDELKKHDLLMEGEVAIQQQGNEQPFIYRGFQMVNQDKLRETRGDVLRGWAQSGLLPLLYAHLFSLELISQIFGAQVQMGKGPIPATPVPAE | not soluble |
| VTVQDGNFSFSLESVKKLKDLQEPQEPRVGKLRNFAPIPGEPVVPILCSNPNFPEELKPLCKEPNAQEILQRLEEIAEDPGTCEICAYAACTGC | soluble |
| MSQENIIYFSDYICITKGADGFYIESYKKGMSVDEFNKIIGRHPEIKITSFMAIKNAILFAPKPPVKFGEVKDRISVELSSDELKAYIRLCVEEWEFSGDARVKLMEEISKSLEKAGVVFGIKEDVLLDGLCNNKQILIAEGIPPEHGEDAVIRMYEIKKAKPAIKEDGRVDHYELNLINKVKTGDWLGERIDPTPGTAGKSVKGNPIPARPGRNYPLHYDKNSVREERKGGVTYLYALKSGAVHYEGDRISVSNHLEIDGDVDFKTGNINFDGFVTIKGTVADGFSVVAVKDVEILGTIGIGSVKEVVSKEGSIYIKGGIAGKNKAVIKAKKDVYTKYISDATVACEGSLHVGLYCINSNITAREIIIDSPKGQISGGNIQCETKVLSPVLGSPSEKRTVISVKGFNRNTLKERLEEVMKNIETLKNELVKVKAEVNAYFENEQNGKVGSLKAEDIRQRFNRIKNELTELEEEKKAISDTLRTRGEGEISILKKAYPGVVIGIKNIIKEIDRPIVNTTFYIQDGYIKEV | soluble |
| MTDNQSKSLELILTDSDDAHMLLGTHDKHIKFLEENTHVTINSRGEVIQLIGESSEVELVASVLRALQTLIQRGIKVHTPDVVSALKMAKAGNLEAFIAMYEEEIMKDHHGRAIRIKNVGQKKYIDAVKTHDVIFGVGPAGTGKTFLAVVMAVAALKKGEVQKIILTRPAVEAGESLGFLPGDLKEKVDPYLRPVYDALYQIFGMDHTNRLMERGVIEIAPLAYMRGRTLDDAFVILDEAQNTTVAQMKMFLTRLGFSSKMIVNGDTSQIDLPRGVTSGLVNAERTLKDIEKIAFVNFEASDVVRHPVVAQIIQAYEKEQQKHS | not soluble |
